One assay has as its target T1, Mcl-1, Q07820.
T1 chain: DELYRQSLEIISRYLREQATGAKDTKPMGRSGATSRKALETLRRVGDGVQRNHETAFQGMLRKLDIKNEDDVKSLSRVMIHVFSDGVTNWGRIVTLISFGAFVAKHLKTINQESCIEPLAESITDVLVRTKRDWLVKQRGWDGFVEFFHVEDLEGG
Nature of the assay: peptide SPOT array, c-Myc-tagged receptor at 1 uM or 100 nM, anti-c-Myc-Cy3.

A further assay has as its target Bcl-xL, Q07817. Described as above.

Bcl-xL, Q07817, sequence (Q07817 1-209): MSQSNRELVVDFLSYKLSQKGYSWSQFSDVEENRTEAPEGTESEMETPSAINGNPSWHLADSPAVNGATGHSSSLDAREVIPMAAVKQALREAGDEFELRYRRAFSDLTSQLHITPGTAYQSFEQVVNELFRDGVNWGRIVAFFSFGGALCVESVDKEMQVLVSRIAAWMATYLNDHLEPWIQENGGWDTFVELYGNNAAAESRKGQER

B1: TBRG4 (peptide)
chain: DLDSNQAAMVLIRLSHLLSEKPEDKG
Take B1: the SPOT signal as a fraction of Bim BH3's signal on the same receptor and array with Mcl-1, Q07820 worked out at 0.02.

B2: MTA1 (peptide)
chain: RQAFYLHTTKDTRIARRLCREILRPW
B2 had an SPOT signal as a fraction of Bim BH3's signal on the same receptor and array with Bcl-xL, Q07817 of 1.26.

B3: C7orf27 (peptide)
chain: QDTEQFVATVLQAASRDLDWEVRAQG
As to B3, in the assay with Mcl-1, Q07820, the SPOT signal as a fraction of Bim BH3's signal on the same receptor and array amounted to 0.02.

B4: GRIK3 (peptide)
chain: DRFEGYCIDLLKELAHILGFSYEIRL
Molecule B4 gave an SPOT signal as a fraction of Bim BH3's signal on the same receptor and array with Mcl-1, Q07820 of 0.02.

B5: NOL8 (peptide)
chain: KYDPSKYCHNDKKIGEDFSNTIPISS
In the assay with Bcl-xL, Q07817, B5 displayed an SPOT signal as a fraction of Bim BH3's signal on the same receptor and array of 0.08.

B6: ARSG (peptide)
chain: PEVRKVLADVLQDIANDNISSADYTQ
As for B6, in the assay with Mcl-1, Q07820, the SPOT signal as a fraction of Bim BH3's signal on the same receptor and array came to 0.01.

B7: TRPM7 (peptide)
chain: FERVEQMCIQIKEVLDRVNYIKRSLQ
In the assay with Bcl-xL, Q07817, B7 gave an SPOT signal as a fraction of Bim BH3's signal on the same receptor and array of 0.18.

B8: OTUD7B (peptide)
chain: KKRADSVANKLGSFGKTLGSKLKKNM
Molecule B8 gave an SPOT signal as a fraction of Bim BH3's signal on the same receptor and array with Bcl-xL, Q07817 of 0.58.

B9: ASB16 (peptide)
chain: RGLEQHVALYLEHGADVGLRTSQGET
Molecule B9 came in with an SPOT signal as a fraction of Bim BH3's signal on the same receptor and array with Mcl-1, Q07820 of 0.02.

B10: ANO2 (peptide)
chain: GSIAKKFSAALQKLSSHLQPRVPEHS
B10 registered an SPOT signal as a fraction of Bim BH3's signal on the same receptor and array with Bcl-xL, Q07817 of 0.11.

B11: LMO2 (peptide)
chain: CLSCDLCGCRLGEVLRRLYYKLGRKL
Turning to B11, the SPOT signal as a fraction of Bim BH3's signal on the same receptor and array in the assay with Bcl-xL, Q07817 came to 0.54.

B12: NCOA6 (peptide)
chain: FNIPREAAERLRILAQSNNQQLRDLG
Take B12: in the assay with Bcl-xL, Q07817, the SPOT signal as a fraction of Bim BH3's signal on the same receptor and array was 0.08.

B13: DYNC2H1 (peptide)
chain: PKELEGYIQKLQNAAERLATENRKLR
B13 had an SPOT signal as a fraction of Bim BH3's signal on the same receptor and array with Bcl-xL, Q07817 of 0.09.

B14: TRIM58 (peptide)
chain: KSRLVQQSKALKELLDELQERCQRPA
Molecule B14 had an SPOT signal as a fraction of Bim BH3's signal on the same receptor and array with Bcl-xL, Q07817 of 0.11.

B15: APC (peptide)
chain: EDLQQVIASVLRNLSWRADVNSKKTL
In the assay with Mcl-1, Q07820, B15 returned an SPOT signal as a fraction of Bim BH3's signal on the same receptor and array of 0.07.

B16: NBEAL2 (peptide)
chain: EVRSSQFARKDWRSSRRISQVSSGET
As to B16, the SPOT signal as a fraction of Bim BH3's signal on the same receptor and array with Bcl-xL, Q07817 came to 0.92.

B17: LONRF1 (peptide)
chain: AASDFRTSVVLNHLAEKWFPGQRERA
For the molecule B17, the SPOT signal as a fraction of Bim BH3's signal on the same receptor and array with Mcl-1, Q07820 was found to be 0.07.

B18: GFRA4 (peptide)
chain: RLRSEYVAQCLGRAAQGGCPRARCRR
Take B18: the SPOT signal as a fraction of Bim BH3's signal on the same receptor and array with Mcl-1, Q07820 amounted to 0.8.

B19: DHX40 (peptide)
chain: QFEIEKSCELLFQMAESVDYDYDVQD
In the assay with Bcl-xL, Q07817, B19 returned an SPOT signal as a fraction of Bim BH3's signal on the same receptor and array of 0.02.

B20: APOL1 (peptide)
chain: EGAKSETAEELKKVAQELEEKLNILN
In the assay with Mcl-1, Q07820, B20 gave an SPOT signal as a fraction of Bim BH3's signal on the same receptor and array of 0.01.

B21: UTP20 (peptide)
chain: DIARSTLAKIIEDLGVHFLLYVLKEL
Regarding B21, the SPOT signal as a fraction of Bim BH3's signal on the same receptor and array with Mcl-1, Q07820 worked out at 0.02.

B22: BCL2A1 (peptide)
chain: GSGPSKTSRVLQNVAFSVQKEVEKNL
In the assay with Bcl-xL, Q07817, B22 returned an SPOT signal as a fraction of Bim BH3's signal on the same receptor and array of 0.06.

B23: SMARCAL1 (peptide)
chain: TGKDRLTAGLINIVSFDLLSKLEKQL
Turning to B23, the SPOT signal as a fraction of Bim BH3's signal on the same receptor and array in the assay with Mcl-1, Q07820 stood at 0.02.

B24: PCSK6 (peptide)
chain: GTKSQLLAKRLLDLSNEGFTNWEFMT
In turn, B24 gave an SPOT signal as a fraction of Bim BH3's signal on the same receptor and array with Bcl-xL, Q07817 of 0.03.

B25: UBE2C (peptide)
chain: SDNLFKWVGTIHGAAGTVYEDLRYKL
In turn, B25 gave an SPOT signal as a fraction of Bim BH3's signal on the same receptor and array with Bcl-xL, Q07817 of 0.03.

B26: KLC3 (peptide)
chain: GPEHPAVAATLNNLAVLYGKRGRYRE
In the case of B26, in the assay with Mcl-1, Q07820, the SPOT signal as a fraction of Bim BH3's signal on the same receptor and array is 0.28.

B27: DNAH8 (peptide)
chain: VLLLSSSVNSLRKAAHEALQDFQKYK
In turn, B27 yielded an SPOT signal as a fraction of Bim BH3's signal on the same receptor and array in the assay with Mcl-1, Q07820 of 0.19.

B28: CYP3A4 (peptide)
chain: SGKLKEMVPIIAQYGDVLVRNLRREA
Consider B28, for which the SPOT signal as a fraction of Bim BH3's signal on the same receptor and array with Mcl-1, Q07820 stood at 0.07.

B29: SRGAP2 (peptide)
chain: AEIEMDYSRNLEKLAERFLAKTRSTK
B29 displayed an SPOT signal as a fraction of Bim BH3's signal on the same receptor and array in the assay with Mcl-1, Q07820 of 0.08.

B30: SLITRK2 (peptide)
chain: RLKVMPFAGVLEHIGGIMEIQLEENP
B30 displayed an SPOT signal as a fraction of Bim BH3's signal on the same receptor and array with Mcl-1, Q07820 of 0.02.

B31: RNF213 (peptide)
chain: LANVTEDAKRLIAVADSVLTKVVGDL
B31 displayed an SPOT signal as a fraction of Bim BH3's signal on the same receptor and array with Bcl-xL, Q07817 of 0.03.

B32: C9orf100 (peptide)
chain: HQQLTRAARLISETAQRVHTIGQKQK
In the assay with Mcl-1, Q07820, B32 registered an SPOT signal as a fraction of Bim BH3's signal on the same receptor and array of 0.57.

B33: PLB1 (peptide)
chain: RVIPHDGAEDLWIQAQELVRNMKENL
In turn, B33 had an SPOT signal as a fraction of Bim BH3's signal on the same receptor and array with Bcl-xL, Q07817 of 0.03.

B34: RRP12 (peptide)
chain: MKLRNLFTKFIRKFGFELVKRLLPEE
As for B34, the SPOT signal as a fraction of Bim BH3's signal on the same receptor and array with Mcl-1, Q07820 was found to be 0.14.

B35: TFDP1 (peptide)
chain: NRKGEKNGKGDRHFSMKVCEKVQRKG
B35: the SPOT signal as a fraction of Bim BH3's signal on the same receptor and array with Bcl-xL, Q07817 was found to be 0.47.

B36: BCAP29 (peptide)
chain: WLVLRRLVTLITQLAKELSNKGVLKT
On to B36, for which the SPOT signal as a fraction of Bim BH3's signal on the same receptor and array with Bcl-xL, Q07817 was found to be 0.35.

B37: SMG6 (peptide)
chain: DLQIYQPGRRLQTVSKESASRVEEEE
Consider B37, for which the SPOT signal as a fraction of Bim BH3's signal on the same receptor and array with Bcl-xL, Q07817 is 0.03.

B38: ARHGAP4 (peptide)
chain: EVLAGPLAQRLSHILEDVGRLVKKSR
As for B38, in the assay with Bcl-xL, Q07817, the SPOT signal as a fraction of Bim BH3's signal on the same receptor and array amounted to 0.19.

B39: DYNC2H1 (peptide)
chain: RDHDEFIINLIRGLGGNLNMKSRLEF
The molecule B39 had an SPOT signal as a fraction of Bim BH3's signal on the same receptor and array with Mcl-1, Q07820 of 0.03.

B40: RDH13 (peptide)
chain: PSTYLAVAEELADVSGKYFDGLKQKA
Molecule B40 registered an SPOT signal as a fraction of Bim BH3's signal on the same receptor and array with Mcl-1, Q07820 of 0.05.

B41: TLR5 (peptide)
chain: PEDLQDVGWFLHKLLQQILKKEKEKK
For B41, in the assay with Bcl-xL, Q07817, the SPOT signal as a fraction of Bim BH3's signal on the same receptor and array was 0.09.

B42: MTA1 (peptide)
chain: RQAFYLHTTKLTRILRRLCREILRPW
For B42, in the assay with Bcl-xL, Q07817, the SPOT signal as a fraction of Bim BH3's signal on the same receptor and array came to 0.85.

B43: CYP46A1 (peptide)
chain: LREVRESIRFLRQVLRDWVQRRREAL
In the case of B43, in the assay with Bcl-xL, Q07817, the SPOT signal as a fraction of Bim BH3's signal on the same receptor and array came out at 0.44.

B44: TTC30A (peptide)
chain: YYSSRQYASALKHIAEIIERGIRQHP
For B44, the SPOT signal as a fraction of Bim BH3's signal on the same receptor and array with Mcl-1, Q07820 worked out at 0.08.

B45: HMHA1 (peptide)
chain: TTLEMEFAKGLQKIAHNCRQSVMQEP
For B45, the SPOT signal as a fraction of Bim BH3's signal on the same receptor and array with Mcl-1, Q07820 stood at 0.02.

B46: BBS4 (peptide)
chain: AVLSPQSADNLKQVARSLFLLGKHKA
For the molecule B46, the SPOT signal as a fraction of Bim BH3's signal on the same receptor and array with Mcl-1, Q07820 is 0.2.

B47: PLCB1 (peptide)
chain: REHIKLLIQKLTDVAEECQNNQLKKL
Consider B47, for which the SPOT signal as a fraction of Bim BH3's signal on the same receptor and array with Bcl-xL, Q07817 worked out at 0.05.

B48: UBE3B (peptide)
chain: PESTKRSALCIFKIARKLLFLFRIKE
For B48, the SPOT signal as a fraction of Bim BH3's signal on the same receptor and array with Mcl-1, Q07820 worked out at 0.1.

B49: NUB1 (peptide)
chain: TDENKKVGLALKDLLKQYSDRLECCE
With B49, the SPOT signal as a fraction of Bim BH3's signal on the same receptor and array with Bcl-xL, Q07817 is 0.03.

B50: MYO15A (peptide)
chain: YGRLRPRARSLSKASTAINWLTKKFL
In turn, B50 had an SPOT signal as a fraction of Bim BH3's signal on the same receptor and array with Bcl-xL, Q07817 of 1.39.

The values are drawn from article PMC4072508, “Genome-Wide Prediction and Validation of Peptides That Bind Human Prosurvival Bcl-2 Proteins” (PLoS Computational Biology, 2014).
